Patent US20050019801A1, “Stem cell-based methods for identifying and characterizing agents” (Curis, Inc., priority 2003, published 2005)
“Also recorded” adds a separate entry of the source.

Assays:
[1] = tested on: (HB9-GFP)-mouse embryonic stem cells; test: Motor neuron differentiation of (HB9-GFP)-mouse embryonic stem cell embryoid bodies, GFP by fluorescent or confocal microscopy; format: cell-based; conditions: one day 100 nM RA and 50 ng/ml Sonic hedgehog protein, then three days with agent, fluorescent microscopy
Description: Briefly, mouse embryonic stem cells expressing GFP under the control of the HB9 promoter were cultured to confluence, trypsinized, and allowed to reaggregate to form embryoid bodies. The embryoid bodies were treated for one day with 100 nM RA and 50 ng/ml Sonic hedgehog protein. Subsequently, the embryoid bodies were cultured for three days with a previously identified hedgehog, small molecule agonist. Cultured embryoid bodies were analyzed by fluorescent and bright filed microscopy (FIG. 2).
As outlined above, the stem cell based methods of the invention can be used in many ways including, but not limited to, as a primary screen to identify agents that promote differentiation without regard to the mechanism of action; as a primary screen to identify agents that promote differentiation and that may act by agonizing or antagonizing a particular signaling pathway; or as a secondary screen to confirm that an agent that agonizes or antagonizes a particular signaling pathway also functions to promote differentiation along a particular lineage. […] Briefly, several small molecules were previously identified in a screen to identify agonists of the hedgehog signaling pathway. […] Mouse embryonic stem cells expressing GFP under the control of the HB9 promoter were cultured to confluence, trypsinized, and allowed to reaggregate to form embryoid bodies. The embryoid bodies were treated for one day with 100 nM RA and 50 ng/ml Sonic hedgehog protein. Subsequently, the embryoid bodies were cultured for three days with one of three previously identified hedgehog, small molecule agonists. Cultured embryoid bodies were analyzed by fluorescent microscopy for expression of GFP (FIG. 3).
Mouse embryonic stem cells were cultured and treated as described above. Following three days of culture in the presence of the hedgehog agonist, embryoid bodies were analyzed by confocal microscopy to allow analysis of sections throughout the embryoid body. Confocal images were compared to confocal images of embryoid bodies cultured in the absence of hedgehog agonist.
By way of example, known antagonists of BMP signaling include noggin, chordin, follistatin, cerberus, Dan, gremlin, ectodin, sclerostin, and ventroptin. Known antagonists of Wnt signaling include sFRP, WIF, dkk, and Cerberus. Briefly, mouse embryonic stem cells expressing GFP under the control of the HB9 promoter were cultured to confluence, trypsinized, and allowed to reaggregate to form embryoid bodies. The embryoid bodies were treated for one day with 100 nM RA and 50 ng/ml Sonic hedgehog protein. Subsequently, the embryoid bodies were cultured for three days with one of the following: 98 (a small molecule hedgehog agonist), chordin (a BMP antagonist), noggin (a BMP antagonist), gremlin (a BMP antagonist), Dan (a BMP antagonist), PTN (a neurotrophic factor), sFRP2 (a Wnt antagonist), dkk1 (a Wnt antagonist). Cultured embryoid bodies were analyzed by fluorescent microscopy for expression of GFP (FIG. 9).
Embryoid bodies were differentiated as described above for FIG. 9. […] Note, however, the morphological differences among cells types differentiated using each agent. Embryoid bodies treated with a Wnt antagonist were flatter than embryoid bodies treated with a BMP antagonist.

[2] = tested on: Mouse embryonic stem cells (embryoid bodies); test: Combinations of agents promoting motor neuron differentiation from embryoid bodies, HB9 expression; format: cell-based; conditions: agent plus the same sub-threshold concentration of small molecule hedgehog agonist (Ag1.3)
Description: BMP antagonists and Wnt antagonists synergized with hedgehog agonists to promote motor neuron differentiation from embryoid bodies. Briefly, mouse embryonic stem cells were cultured, as described above.

Row | Molecule | motor neuron differentiation, as measured by expression of the HB9 promoter-driven transgene (GFP) [1] | motor neuron differentiation, as measured by expression of HB9 [2] | motor neuron differentiation, as measured by expression of the HB9 promoter-driven transgene (GFP) ([1]; listed as sFRP)
1 | gremlin: a BMP antagonist (protein, UniProt O60565 25-184, looked up) Gremlin-1: KKKGSQGAIPPPDKAQHNDSEQTQSPQQPGSRNRGRGQGRGTAMPGEEVLESSQEALHVTERKYLKRDWCKTQPLKQTIHEEGCNSRTIINRFCYGQCNSFYIPRHIRKEEGSFQSCSFCKPKKFTTMMVTLNCPELQPPTKKKRVTRVKQCRCISIDLD | robustly promoted motor neuron differentiation; also recorded: differentiated along a motor neuron lineage | promoted motor neuron differentiation | –
2 | PTN: a neurotrophic factor (protein, UniProt P21246 33-168, looked up) Pleiotrophin: GKKEKPEKKVKKSDCGEWQWSVCVPTSGDCGLGTREGTRTGAECKQTMKTQRCKIPCNWKKQFGAECKYQFQAWGECDLNTALKTRTGSLKRALHNAECQKTVTISKPCGKLTKPKPQAESKKKKKEGKKQEKMLD | robustly promoted motor neuron differentiation | – | –
3 | noggin: a BMP antagonist (protein, UniProt Q13253 28-232, looked up) Noggin: QHYLHIRPAPSDNLPLVDLIEHPDPIFDPKEKDLNETLLRSLLGGHYDPGFMATSPPEDRPGGGGGAAGGAEDLAELDQLLRQRPSGAMPSEIKGLEFSEGLAQGKKQRLSKKLRRKLQMWLWSQTFCPVLYAWNDLGSRFWPRYVKVGSCFSKRSCSVPEGMVCKPSKSVHLTVLRWRCQRRGGQRCGWIPIQYPIISECKCSC | robustly promoted motor neuron differentiation; also recorded: differentiated along a motor neuron lineage | promoted motor neuron differentiation | –
4 | sFRP2: a Wnt antagonist (protein, UniProt Q96HF1 25-295, looked up) Secreted frizzled-related …: LFLFGQPDFSYKRSNCKPIPANLQLCHGIEYQNMRLPNLLGHETMKEVLEQAGAWIPLVMKQCHPDTKKFLCSLFAPVCLDDLDETIQPCHSLCVQVKDRCAPVMSAFGFPWPDMLECDRFPQDNDLCIPLASSDHLLPATEEAPKVCEACKNKNDDDNDIMETLCKNDFALKIKVKEITYINRDTKIILETKSKTIYKLNGVSERDLKKSVLWLKDSLQCTCEEMNDINAPYLVMGQKQGGELVITSVKRWQKGQREFKRISRSIRKLQC | differentiated along a motor neuron lineage | promoted motor neuron differentiation | robustly promoted motor neuron differentiation
5 | dkk1: a Wnt antagonist (protein, UniProt O94907 32-266, looked up) Dickkopf-related protein 1: TLNSVLNSNAIKNLPPPLGGAAGHPGSAVSAAPGILYPGGNKYQTIDNYQPYPCAEDEECGTDEYCASPTRGGDAGVQICLACRKRRKRCMRHAMCCPGNYCKNGICVSSDQNHFRGEIEETITESFGNDHSTLDGYSRRTTLSSKMYHTKGQEGSVCLRSSDCASGLCCARHFWSKICKPVLKEGQVCTKHRRKGSHGLEIFQRCYCGEGLSCRIQKDHHQASNSSRLHTCQRH | robustly promoted motor neuron differentiation; also recorded: differentiated along a motor neuron lineage | – | –
